Publication PMC4011921 (mAbs, 2014)

Columns and labels:
cynomolgus IL-6 = cynomolgus IL-6 (cynomolgus, UniProt P79341); assay: SPR
human IL-6 = human IL-6 (Homo sapiens, UniProt P05231); assay: SPR
Sequence of human IL-6 (P05231 30-212): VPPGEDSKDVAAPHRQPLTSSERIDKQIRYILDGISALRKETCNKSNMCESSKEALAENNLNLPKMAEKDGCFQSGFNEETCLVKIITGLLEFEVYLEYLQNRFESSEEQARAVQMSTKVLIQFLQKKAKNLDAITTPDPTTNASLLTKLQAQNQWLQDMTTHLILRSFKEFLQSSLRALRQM

Sequence of cynomolgus IL-6 (P79341 28-212): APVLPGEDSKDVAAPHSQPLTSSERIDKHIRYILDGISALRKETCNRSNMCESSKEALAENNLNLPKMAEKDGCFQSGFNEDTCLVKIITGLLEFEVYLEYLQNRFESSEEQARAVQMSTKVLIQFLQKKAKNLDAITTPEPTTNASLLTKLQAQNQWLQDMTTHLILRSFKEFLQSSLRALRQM

B1: olokizumab (antibody, V domains shown)
VH: EVQLVESGGGLVQPGGSLRLSCAASGFNFNDYFMNWVRQAPGKGLEWVAQMRNKNYQYGTYYAESLEGRFTISRDDSKNSLYLQMNSLKTEDTAVYYCARESYYGFTSYWGQGTLVTVSS
VL: DIQMTQSPSSLSASVGDRVTITCQASQDIGISLSWYQQKPGKAPKLLIYNANNLADGVPSRFSGSGSGTDFTLTISSLQPEDFATYYCLQHNSAPYTFGQGTKLEIK
For B1, the binding result (cynomolgus IL-6) was “binds” and the Kd (human IL-6) was 0.01 nM.
